Columns and labels:
[1] = biological target: ヒトFcγRIIIaを固定化した担体(分離剤)を詰めたカラム(FcR9_Fカラム、WO2018/150973号の実施例5に記載) (human); experiment: FcγRIIIa affinity chromatography (FcR9_F column), area share of the strongly binding peak 3; antibody from bioreactor batch culture in BalanCD CHO Growth A without Mn, day 9
[2] = biological target: ヒトFcγRIIIaを固定化した担体(分離剤)を詰めたカラム(FcR9_Fカラム、WO2018/150973号の実施例5に記載) (human); experiment: FcγRIIIa affinity chromatography (FcR9_F column), area share of the strongly binding peak 3; antibody from bioreactor batch culture in EX-CELL Advanced CHO Fed-batch Medium with 10 µM Mn, day 10
[3] = biological target: ヒトFcγRIIIaを固定化した担体(分離剤)を詰めたカラム(FcR9_Fカラム、WO2018/150973号の実施例5に記載) (human); experiment: FcγRIIIa affinity chromatography (FcR9_F column), area share of the strongly binding peak 3; antibody from bioreactor batch culture in EX-CELL Advanced CHO Fed-batch Medium without Mn, day 10
[4] = biological target: ヒトFcγRIIIaを固定化した担体(分離剤)を詰めたカラム(FcR9_Fカラム、WO2018/150973号の実施例5に記載) (human); experiment: FcγRIIIa affinity chromatography (FcR9_F column), area share of the strongly binding peak 3; antibody from bioreactor batch culture in EX-CELL Advanced CHO Fed-batch Medium with 1 µM Mn, day 10
[5] = biological target: ヒトFcγRIIIaを固定化した担体(分離剤)を詰めたカラム(FcR9_Fカラム、WO2018/150973号の実施例5に記載) (human); experiment: FcγRIIIa affinity chromatography (FcR9_F column), area share of the strongly binding peak 3; antibody from bioreactor batch culture in EX-CELL Advanced CHO Fed-batch Medium with 5 µM Mn, day 10
[6] = biological target: ヒトFcγRIIIaを固定化した担体(分離剤)を詰めたカラム(FcR9_Fカラム、WO2018/150973号の実施例5に記載) (human); experiment: FcγRIIIa affinity chromatography (FcR9_F column), area share of the strongly binding peak 3; antibody from bioreactor batch culture in BalanCD CHO Growth A with 5 µM Mn, day 10

FcR9_Fカラムとの結合力が強いピーク(ピーク3)の割合 [1]: 27.9% | FcR9_Fカラムとの結合力が強いピーク(ピーク3)の割合 [2]: 41% | FcR9_Fカラムとの結合力が強いピーク(ピーク3)の割合 [3]: 35.9% | FcR9_Fカラムとの結合力が強いピーク(ピーク3)の割合 [4]: 36.5% | FcR9_Fカラムとの結合力が強いピーク(ピーク3)の割合 [5]: 38.4% | FcR9_Fカラムとの結合力が強いピーク(ピーク3)の割合 [6]: 34.7%
B1: 抗インターロイキン6レセプター(IL−6R)抗体 (antibody, V domains shown)
VH: QVQLQESGPGLVRPSQTLSLTCTVSGYSITSDHAWSWVRQPPGRGLEWIGYISYSGITTYNPSLKSRVTMLRDTSKNQFSLRLSSVTAADTAVYYCARSLARTTAMDYWGQGSLVTVSS
VL: DIQMTQSPSSLSASVGDRVTITCRASQDISSYLNWYQQKPGKAPKLLIYYTSRLHSGVPSRFSGSGSGTDFTFTISSLQPEDIATYYCQQGNTLPYTFGQGTKVEIK

Reference: patent JP2020103280A
